From the supplement of paper PMC10567573 come the findings set out here.

± gives the standard deviation.

The data set in a line: protein stability index of a GFP-peptide fusion (GPS, HEK-293T) (PSI 1-6); higher = more stable.
The mark [1] stands for this setting: treatment: DMSO, c terminus: a fixed tail appended.
Where [2] appears, read: treatment: MLN4924 1 uM, 8 h, c terminus: a fixed tail appended.
The mark [3] stands for this setting: treatment: DMSO, c terminus: native.
Where [4] appears, read: treatment: MLN4924 1 uM, 8 h, c terminus: native.
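Also: 24-mer peptide tiles fused after GFP, lentivirally expressed, FACS-sorted into six equal bins by GFP/DsRed ratio, decoded by Illumina sequencing, PSI is the read-weighted mean bin number.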

With RAHAEIRKMSLLKFLAKVNGSDPR [MAGEA10], the protein stability index by setting is: under setting [1], 2.37 ± 0.26; under setting [2], 2.57 ± 0.58.

Turning to LRQFFKQLPSPPFLPAAGTADCR [CEBPD], the protein stability index reads like this: under setting [3], 1.89 ± 0.67; under setting [4], 2.16 ± 0.28.

For the sequence MASCPDSDNSWVLAGSESLPVETL [PBXIP1], the protein stability index was 4.31 ± 0.27 under setting [1] and 4.41 ± 0.22 under setting [2].

Take RKAALEQDLAFWYGPRWQEVIPYT [HMOX1]: the protein stability index under setting [1] worked out at 2.33 ± 0.23 and the protein stability index under setting [2] came to 2.54 ± 0.39.

As for ADGLLQLGPLGSTAFLPDSKCLVD [GALNT9], the protein stability index turned out to be 3.97 ± 0.16 under setting [1] and 4.09 ± 0.19 under setting [2].

Take DATPPVSPINMEDQERIKVERKRL [JUNB]: the protein stability index reads like this: under setting [1], 5.53 ± 0.2; under setting [2], 5.36 ± 0.4.

Turning to NLFVPLNTNPKEVQEMRNKIREQN [ADD1], the protein stability index was 4.29 ± 0.18 under setting [1] and 4.18 ± 0.24 under setting [2].

With LALMIQSSGNTVLLLILCMQHSFP [TMEM192], the protein stability index was 2.9 ± 0.073 under setting [1] and 3.1 ± 0.48 under setting [2].

In the case of MRHVEKMCKADLSRNFIERNHMEN [TRIM29], the protein stability index was found to be 3.05 ± 0.16 under setting [1] and 3.1 ± 0.12 under setting [2].

For the sequence RPVILDPADPTGNLGGGDPKGWRQ [OAS1], the protein stability index is, setting by setting: under setting [1], 4.28 ± 0.18; under setting [2], 4.47 ± 0.18.

As for MDRSLVQDAPLSDCTETIEGLELT [ADD1], the protein stability index under setting [1] came out at 5.27 ± 0.28 and the protein stability index under setting [2] is 5.32 ± 0.19.

TERSPGPRLQELLGPSPQRDPQAV [ZNF263]: the protein stability index by setting is: under setting [1], 4.79 ± 0.2; under setting [2], 4.91 ± 0.35.

For the sequence SDASSHANAAKHTQDSARVNPQDG [EHMT1], the protein stability index reads like this: under setting [1], 5.27 ± 0.22; under setting [2], 5.36 ± 0.21.

For the sequence NRIKGCHDHLTLSVSRPEGRSWPS [PDLIM4], the protein stability index is 2.87 ± 0.25 under setting [1] and 3.02 ± 0.18 under setting [2].

Regarding WRKRFRPREHHGRGGMLSASAETL [PPFIA4], the protein stability index was 3.15 ± 0.22 under setting [1] and 3.26 ± 0.056 under setting [2].

As for HSSELTEQKLRACLEGSINEHSAH [RPAIN], the protein stability index is 4.55 ± 0.26 under setting [1] and 4.44 ± 0.12 under setting [2].

On to DQDGEYCPEVKLKTTGLEEAAEAE [SRPK2], for which the protein stability index turned out to be 5.63 ± 0.3 under setting [1] and 5.81 ± 0.18 under setting [2].

Sequence FKDSAGKSPTGLKLKNDTENHQPV [ZNF75A] registered a protein stability index under setting [1] of 4.88 ± 0.22 and a protein stability index under setting [2] of 5.03 ± 0.18.

On to PSMIATGSVGAAICGLQQDEEVSS [CCND2], for which the protein stability index was 5.41 ± 0.1 under setting [1] and 5.15 ± 0.27 under setting [2].

In the case of LLFSGGLSESETGPMEEVERQVLP [PBXIP1], the protein stability index under setting [1] was 4.06 ± 0.27 and the protein stability index under setting [2] was 4.18 ± 0.38.

GFGILGHSQNLAKQQRNEVSFVIH [SEPHS2] registered a protein stability index under setting [1] of 2.25 ± 0.47 and a protein stability index under setting [2] of 2.32 ± 0.32.

LNSPPGPHSAKTEEHTTILRPSYT [CDC14A] returned a protein stability index under setting [1] of 4.41 ± 0.61 and a protein stability index under setting [2] of 4.651 ± 0.039.

As to LEQMIKENQEKTEDQYEENSHLTS [ETS2], the protein stability index under setting [1] is 5.7 ± 0.16 and the protein stability index under setting [2] was found to be 5.51 ± 0.14.

On to FCISLLRERFMECLMIGRDLVRLL [INTS3], for which the protein stability index was determined as 2.27 ± 0.28 under setting [1] and 2.29 ± 0.13 under setting [2].

Take MPRQISRQSSVTESTLYPNPYHQP [TPRG1]: the protein stability index reads like this: under setting [1], 3.73 ± 0.34; under setting [2], 3.7 ± 0.25.

As to LTLSQYILLDPILMFFIMAAMLSM [POMT2], the protein stability index was 3.29 ± 0.56 under setting [1] and 2.95 ± 0.69 under setting [2].

For the sequence YDTFHTVADMMYFCQMLAVVETIN [HACD3], the protein stability index turned out to be 3.08 ± 0.35 under setting [1] and 3.17 ± 0.64 under setting [2].

Turning to EQLGSGDGIPQVYYFGPCGKYNAM [CSNK1G3], the protein stability index was found to be 2.34 ± 0.14 under setting [1] and 2.56 ± 0.17 under setting [2].

Regarding PQDSGTAAWKGRVLLPETQKRQQL [C22orf31], the protein stability index under setting [1] was 4.44 ± 0.17 and the protein stability index under setting [2] was determined as 4.27 ± 0.29.

With GKRPSQEEDTQSIGPKVQRQSTN [CRY1], the protein stability index by setting is: under setting [3], 5.35 ± 0.28; under setting [4], 5.45 ± 0.11.

Turning to GSGAASSSGEDKENDGFVFKMPWK [CDC25B], the protein stability index was 4.025 ± 0.022 under setting [1] and 4.37 ± 0.34 under setting [2].

Turning to DGSVRIWELREKQQLAAEPVPTGF [WDR41], the protein stability index by setting is: under setting [1], 3.87 ± 0.16; under setting [2], 3.72 ± 0.32.

For the sequence NNLLSAPPPDVTQLTPPSHDLTDN [ANKRD17], the protein stability index runs as follows: under setting [1], 5.12 ± 0.28; under setting [2], 5.18 ± 0.18.

For ETSVFDQFGIKDVFDNAIRAALIS [RHOBTB1], the protein stability index is, setting by setting: under setting [1], 2.3 ± 0.22; under setting [2], 2.18 ± 0.33.

On to LTKLREMGREKCHQYWPAERSARY [PTPRD], for which the protein stability index is 2.33 ± 0.21 under setting [1] and 2.9 ± 0.45 under setting [2].

For the sequence FTNCYIYNKPTDDIVLMAQALEKI [BRD3], the protein stability index by setting is: under setting [1], 2.43 ± 0.45; under setting [2], 1.97 ± 0.12.

For RATRAGAAEEPGVRGLLASLFAFK [C2CD2L], the protein stability index was 3.1 ± 0.75 under setting [1] and 3.01 ± 0.57 under setting [2].

Turning to GKSFSQNTNLHTHQRTHTGEKPFT [ZNF75A], the protein stability index under setting [1] came to 4.01 ± 0.28 and the protein stability index under setting [2] turned out to be 4.25 ± 0.35.

As to IEKFIREPSLKATMGLAGRARVKE [ALG2], the protein stability index was found to be 3.6 ± 0.18 under setting [1] and 3.62 ± 0.33 under setting [2].

With LSSRWKNWWIRGILTLTMISLFFL [CDS1], the protein stability index by setting is: under setting [1], 2.54 ± 0.37; under setting [2], 2.17 ± 0.36.

In the case of QARHQLVLTAVDGGTPARSGTTLI [PCDHGC5], the protein stability index was determined as 3.18 ± 0.083 under setting [1] and 3.15 ± 0.38 under setting [2].

As for LIFHRHPVAQSTDAIRGKVGYTRG [SPSB1], the protein stability index worked out at 2.33 ± 0.23 under setting [1] and 2.41 ± 0.21 under setting [2].

Consider LTSELDPEKEQEIETIKIIETEDQ [MIA2], for which the protein stability index is, setting by setting: under setting [1], 4.84 ± 0.051; under setting [2], 5.46 ± 0.33.

On to KEKCVSLPDCCHGSELRDFPGRPM [DLC1], for which the protein stability index runs as follows: under setting [1], 3.82 ± 0.33; under setting [2], 3.76 ± 0.4.

Turning to EPEDMETLEEKFSDVHPVALNFMK [CDKL4], the protein stability index is, setting by setting: under setting [1], 4.68 ± 0.3; under setting [2], 4.89 ± 0.19.

SSLSSESSESSDAGLCMDSPSPMD [CDC25B]: the protein stability index turned out to be 5.462 ± 0.013 under setting [1] and 5.37 ± 0.23 under setting [2].

As to ASCCIDPREDGASVNDQCGFGVLR [TSPAN10], the protein stability index under setting [1] turned out to be 3.44 ± 0.14 and the protein stability index under setting [2] is 3.83 ± 0.31.

CVHPRGGVIQSVSSWKHGSGTQYV [C18orf25]: the protein stability index turned out to be 2.58 ± 0.42 under setting [1] and 2.32 ± 0.39 under setting [2].

Regarding VNEMCPNITRIYNIGKSHQGLKLY [CPXM2], the protein stability index by setting is: under setting [1], 2.52 ± 0.35; under setting [2], 2.57 ± 0.5.

For the sequence LINSNVSMVDLTSVTLEDVTPKKS [FAN1], the protein stability index reads like this: under setting [1], 3.34 ± 0.25; under setting [2], 3.55 ± 0.17.

Sequence SPASHVDVDLTIHGRHIDCPATWG [FOXJ1] showed a protein stability index under setting [1] of 3.14 ± 0.2 and a protein stability index under setting [2] of 3.28 ± 0.19.

DHQTLLSAAHEVELQRQKEAEKLE [NOP53] had a protein stability index under setting [1] of 5.46 ± 0.15 and a protein stability index under setting [2] of 5.42 ± 0.38.

Regarding GIREASSGGGGSSSNFHINVEESV [KRT15], the protein stability index reads like this: under setting [1], 4.92 ± 0.18; under setting [2], 5.11 ± 0.28.

NAAKTCPTMPALFSDHTFRHYAYL [INTS4] had a protein stability index under setting [1] of 2.03 ± 0.42 and a protein stability index under setting [2] of 2.13 ± 0.29.

Take RRVGILGEELADVGGVLRGLNHSL [SCARA5]: the protein stability index reads like this: under setting [1], 2.9 ± 0.095; under setting [2], 2.94 ± 0.3.

On to VGLGTCSMFSRVGGIIAPFIPSLK [SLC22A15], for which the protein stability index was 2.1 ± 0.36 under setting [1] and 2.33 ± 0.45 under setting [2].

YGRFIRWLNKEKGIFKIEDSAQVA [SPDEF] registered a protein stability index under setting [1] of 2.37 ± 0.35 and a protein stability index under setting [2] of 2.48 ± 0.2.

In the case of YADHNYGARPPPTPPASPPPSVLI [KMT2E], the protein stability index was 3.06 ± 0.32 under setting [1] and 3.34 ± 0.4 under setting [2].

For SSDHLFLFGGFTTDKQPLSDAWTY [KLHDC2], the protein stability index reads like this: under setting [1], 2.25 ± 0.61; under setting [2], 2.23 ± 0.063.

MAETSLLEAGASAASTAAALENLQ [TRIM39]: the protein stability index worked out at 4.59 ± 0.32 under setting [1] and 4.4 ± 0.29 under setting [2].

With EYECRRRMLMKRLDVTVQSFGWSD [FAM98B], the protein stability index by setting is: under setting [1], 2.48 ± 0.14; under setting [2], 2.45 ± 0.11.

KLQDVFEMRFAKMPDEPVEAPALP [BRD3] yielded a protein stability index under setting [1] of 3.49 ± 0.23 and a protein stability index under setting [2] of 3.62 ± 0.34.

As for EAGNEFKNIFGTPEFVAPEIVNYE [DAPK3], the protein stability index was 4.02 ± 0.1 under setting [1] and 4.66 ± 0.1 under setting [2].

For NVAASNAKLALFYDWLFFSPDKDS [INTS3], the protein stability index by setting is: under setting [1], 2.39 ± 0.46; under setting [2], 2.55 ± 0.55.

Consider GLALESSSGLQDVTGPDNGVRESE [NFE2L1], for which the protein stability index is 5.57 ± 0.36 under setting [1] and 5.53 ± 0.28 under setting [2].

FEGRTPMHVACQHGQENIVRILLR [RIPK4]: the protein stability index by setting is: under setting [1], 2.95 ± 0.49; under setting [2], 2.95 ± 0.2.

As for LLFCCQCVDVVFYNPDLKKVVEAH [RHOBTB3], the protein stability index reads like this: under setting [1], 2.4 ± 0.14; under setting [2], 3.01 ± 0.52.

For the sequence HSALGGTKKKKKTIVTDVFQGSMR [USP39], the protein stability index by setting is: under setting [1], 4.02 ± 0.4; under setting [2], 4.14 ± 0.058.

Take SNSRQLKWLSCGFMLEIVTPTSLS [FBXO33]: the protein stability index by setting is: under setting [1], 3.39 ± 0.73; under setting [2], 2.83 ± 0.67.

In the case of EEITEESLEESVGKPLYLIFRNLC [INTS3], the protein stability index reads like this: under setting [1], 2.79 ± 0.58; under setting [2], 2.88 ± 0.38.

On to AGNRNSMVIHIPEEPRPSRPRYKA [KCNK9], for which the protein stability index worked out at 4.14 ± 0.35 under setting [1] and 4.24 ± 0.13 under setting [2].

In the case of YSIISLLLKDKVRERIQILKTSEV [PTPN9], the protein stability index amounted to 2.9 ± 1.2 under setting [1] and 2.44 ± 0.31 under setting [2].
